The assay has as its target HLA-A*02:01 (Homo sapiens, UniProt P04439, D140Y/D185E/D98H/E176V/E277Q/G131W/G231S/I119V/I121R/I166T/I218V/L300P/L318F/N151K/N90K/P208A/P217A/Q86G/Q94H/R138H/R169H/T345S). The experiment in a line: MHC binding assay (UV-ligand exchange, ELISA of stabilized MHC complexes). The settings on record: MHC class I binding score; binding to HLA-A*02:01 ranged by peptide exchange yield (UV-ligand exchange, ELISA). An excerpt: Candidate peptides for T cell based therapies according to the present invention were further tested for their MHC binding capacity (affinity). The individual peptide-MHC complexes were produced by UV-ligand exchange, where a UV-sensitive peptide is cleaved upon UV-irradiation, and exchanged with the peptide of interest as analyzed. Only peptide candidates that can effectively bind and stabilize the peptide-receptive MHC molecules prevent dissociation of the MHC complexes. To determine the yield of the exchange reaction, an ELISA was performed based on the detection of the light chain (β2m) of stabilized MHC complexes. The assay was performed as generally described in Rodenko et al. (Rodenko et al., 2006).
96 well MAXISorp plates (NUNC) were coated over night with 2 ug/ml streptavidin in PBS at room temperature, washed 4× and blocked for 1h at 37° C. in 2% BSA containing blocking buffer. […] Peptide-MHC monomers of the UV-exchange reaction were diluted 100 fold in blocking buffer. Samples were incubated for 1h at 37° C., washed four times, incubated with 2 ug/ml HRP conjugated anti-82m for 1h at 37° C., washed again and detected with TMB solution that is stopped with […]. Absorption was measured at 450 nm. Candidate peptides that show a high exchange yield (preferably higher than 50%, most preferred higher than 75%) are generally preferred for a generation and production of antibodies or fragments thereof, and/or T cell receptors or fragments thereof, as they show sufficient avidity to the MHC molecules and prevent dissociation of the MHC complexes.
“110 (FLSQVDFEL; listed as Homo sapiens) [compound 110]”: the Peptide exchange result is given as “″+++″ (≥50% = +++)”. As for “111 (YVWGFYPAEV; listed as Homo sapiens) [compound 111]”, the Peptide exchange entry is recorded as “″+++″ (≥50% = +++)”. The result for “114 (SLVGEPILQNV; listed as Homo sapiens) [compound 114]” reads “″++″ (≥20% = ++)”; that for “115 (AIAGAGILYGV; listed as Homo sapiens) [compound 115]”, “″++″ (≥20% = ++)”. In the case of “116 (YHIDEEVGF; listed as Homo sapiens) [compound 116]” it was “″+″ (≥10% = +)”; in that of “117 (ILPDGEDFLAV; listed as Homo sapiens) [compound 117]”, “″+++″ (≥50% = +++)”. For the substance “119 (FLYIGDIVSL; listed as Homo sapiens) [compound 119]”, the Peptide exchange result is listed as “″++++″ (≥75% = ++++)”.

As to “120 (ALLGIPLTLV; listed as Homo sapiens) [compound 120]”, the Peptide exchange entry is on record as “″+++″ (≥50% = +++)”. For the substance “121 (GVVDPRAISVL; listed as Homo sapiens) [compound 121]”, the Peptide exchange entry is recorded as “″++″ (≥20% = ++)”. In the case of “122 (FLLAEDDIYL; listed as Homo sapiens) [compound 122]” it was “″+++″ (≥50% = +++)”.

Regarding “123 (NLWDLTDASVV; listed as Homo sapiens) [compound 123]”, the Peptide exchange entry was “″+++″ (≥50% = +++)”. In the case of “124 (ALYETELADA; listed as Homo sapiens) [compound 124]” it was “″++″ (≥20% = ++)”; in that of “125 (VQIHQVAQV; listed as Homo sapiens) [compound 125]”, “″+++″ (≥50% = +++)”. On to “126 (VLAYFLPEA; listed as Homo sapiens) [compound 126]”, for which the Peptide exchange result is listed as “″++++″ (≥75% = ++++)”. As for “127 (KIGDEPPKV; listed as Homo sapiens) [compound 127]”, the Peptide exchange entry is recorded as “″++″ (≥20% = ++)”. Take “128 (YLFDDPLSAV; listed as Homo sapiens) [compound 128]”: the Peptide exchange entry was “″++″ (≥20% = ++)”. In the case of “129 (GLLDGGVDILL; listed as Homo sapiens) [compound 129]”, the Peptide exchange result was “″+++″ (≥50% = +++)”. For the substance “130 (FLWNGEDSALL; listed as Homo sapiens) [compound 130]”, the Peptide exchange result is given as “″+++″ (≥50% = +++)”.

On to “131 (FVPPVTVFPSL; listed as Homo sapiens) [compound 131]”, for which the Peptide exchange result is “″++″ (≥20% = ++)”. Regarding “132 (LLVEQPPLAGV; listed as Homo sapiens) [compound 132]”, the Peptide exchange entry is “″+++″ (≥50% = +++)”. Turning to “133 (KVLSNIHTV; listed as Homo sapiens) [compound 133]”, the Peptide exchange result is recorded as “″++″ (≥20% = ++)”. With “134 (YLQELIFSV; listed as Homo sapiens) [compound 134]”, the Peptide exchange result is on record as “″+++″ (≥50% = +++)”. For the substance “135 (ALSEVDFQL; listed as Homo sapiens) [compound 135]”, the Peptide exchange entry is recorded as “″+++″ (≥50% = +++)”. Regarding “136 (YLADPSNLFVV; listed as Homo sapiens) [compound 136]”, the Peptide exchange entry is “″+++″ (≥50% = +++)”.

Consider “137 (TLVLTLPTV; listed as Homo sapiens) [compound 137]”, for which the Peptide exchange result is “″++++″ (≥75% = ++++)”.

“138 (YQYPRAILSV; listed as Homo sapiens) [compound 138]”: the Peptide exchange entry is “″+++″ (≥50% = +++)”.

For the substance “139 (SVMEVNSGIYRV; listed as Homo sapiens) [compound 139]”, the Peptide exchange entry is “″+++″ (≥50% = +++)”. In the case of “140 (YMDAPKAAL; listed as Homo sapiens) [compound 140]” it was “″++″ (≥20% = ++)”; in that of “142 (FLFATPVFI; listed as Homo sapiens) [compound 142]”, “″+++″ (≥50% = +++)”.

The values above are taken from patent US10472401B2, “Peptides and combination of peptides for use in immunotherapy against ovarian cancer and other cancers” (immatics biotechnologies GmbH, priority 2015, dated 2019).
